Reference: the DeepSol protein solubility set

Assay: soluble on expression in E. coli; label from the status in PepcDB or PDB records

Sequence: MSAQTDPGYFFMPNHIILIGASEQPYSLGERVLSNLLSTPFQGKITPVNPRHHTIAGLPAYTSLNKIPGNADLIIAVTLPDSYDTLFKTCRKKQLRHIILIQDWDNLSAAELHTAETAIRKHHGNGLNITACTTAGIQLPSLGLNISTQDGYAAGHTAILTGNAAVSRQIDNILNKLRQGTSRHISLHPGISPITSADWLNRFGHSLHTKTAVLHHNPEEDQRKLFSAIRQFTRHTPLILHITCRTTETDRAVLHCLARHCNFLVSFNADDLEAALRAQLSDLPPLSRLDILSDTPAEWLHAHAPKNLTLHFPNLPHHIRNGHLTGTPTPSICHDIASRQLAHPDTQAVLTILSPSGHEDYKKTARALIRLSEQTAKPLLVSSPFSDGITHFDTPTQAIRTLSYRNTAAALKQAQLDIAPPQPCRLKTPQPQNIKKALAAANPSLLAEALHLPPYRHTTHNAVQFQFDSHPLYGDILTARCNGQTTAVLPPFTTLDSRHLARFAELDGTQTLDQFLHTLTVIPEYRQHILGITLNLNGGQYSSDFLLKTPETHDTPKRKNTGKAAQTLEHAAAKMQSAAAYLKHKNPTAAEFLRHTSEAAAELLGSKTETGAAVPNVLAPYPAAYPKTLSLRNNTTVTITPILPEDAEAKQQFVRSLGPEARYTRFMTHTNELPAATLARLCNPDYHCEAAWTAKDADSNIVAVVRHSRLNRNECEFGITLAEHMRGSGLAQKMMELIIQTAAQQGYRTMSADILKTNTPMIKLAEKSGFTLKESDTEKNLYRAYLNLAADKTTEKTNKNLRTDHKIT
- soluble on expression in E. coli: not soluble

Sequence: MQAKVHVKKGDTVLVASGKYKGRVGKVKAVLPRKMAVIVEGVNLVKKAVRPSPKHPQGGFVEQEAPLHASKVRPICPACGKPTRVRKKFLEDGRKIRACAKCGGSLDVEELEHHHHHH
- soluble on expression in E. coli: not soluble

Sequence: MAHHHHHHMKFIPLDSFSALNSLLQGVEAQGCCITMRLEAYTCRHTKEERQIANSIACYQNNVQLTPPISPLPTIGAYAGCTQEALPPLVLGGSAENVAASYSLVSPNEIDDRLVYFVAALNTVYESDGYDFSVLRENDFVRYTEPQFRTEVSSTLQSLPEQCRPAVQRFWPTIEEVVENAESGCEYYEFRCPSCNPLADTTVYARHYFVYNRRKKVLVLLVEYGESNPYRGDDGLPHAGDPTSAWDAESPTYASTPDLGEEGEAYDGGKNRQFYGYY
- soluble on expression in E. coli: soluble

Sequence: MGSDKIHHHHHHMTKLYEPFYRLTIELTECEREIIGSRPFKRLAHLHHYGAAALRTPVTHSRYEHTIGVWSLTAHFFPSDQLLRLVALLHDIGHLPFSHAVEQPLGFNHHLLTERLIESQEVAKILKKHGFIPQDVIRRLNENTPVSNQEKLLSLDHLDSFLRDTTLAGTCSLIPHESLGRLSVRGNGIETDEETALLLASCIVKDHELFLDPFNLAMDALLAEAITLYMADKPLVSMENIPHMTDDEVLTLLRGSWNKKVHAHLKLLFSQQPTLVQTDDESSAKLTVTVRKVYEDRPLIRHGTAKGREMVEKKLAELQELKGRFSFVY
- soluble on expression in E. coli: not soluble

Sequence: MTDPARMVELWRGGLLESWHTGHAAVWSADGGLVEAWGDPGTVIFPRSSCKMMQALPLLESGAGAGLSSQRLALACASHQGAELHTGHVGRWLTDLGLCEADLRCGAHMPADTAERDRLIRAYEEPCQIHNNCSGKHAGFLMLSQHLKAGPEYVEIDHPVQQAVRTAFEEVTDEASPGYGIDGCSAPNFATTVAGLARAMAFFAGASTGGGVRERSAARLVEAMIAHPELVAGEGRACTELMRAMGGRAAIKTGAEAVFVAIVPEKRLGIALKIVDGSTRASEAAIAALLVRHGLLDPAHPAARKRLDAIQTNWRGRETGILRAAPGFPLEHHHHHH
- soluble on expression in E. coli: not soluble

Sequence: MSGTKVPSLPKGKEKPCVVTFATQSDRSNEPPPQPRVRKVTTIINTLGVVVRNTTTEIGVWVFTSCVEVSFPRSNSPIFSNFTLGTWMIVGLYPDATVASCSPWPLILKAYEMSVSYGTVFMKRKASELCHEKTVLYSEVVVPLVNPYSNMSYFERDPHLTAELYMIPGFGRVLGSSAYRQYLEDNRDNVSFIVQYCGGSLRGCSWIMSVVDGKAQTDGEFSDKDLREIAEFIRERHNKENESPPLPSNSIARHAGFVTEVFPQKNYLYCWSPQVSLEADHTAKFPQPPKHREVDSPMLSPLVGQWIQFDVQSKDLDKYMSTRSGYRLSIQEYLPINSPCGVGVVQCGKIVRVMISCILVKSTDHPMLFELQMFGPVIDKKSSLISGAFMQIVLEKTSSRIRRMSGVCWRVIYSLIVSGAENMVENSQSVRIEAISQRDAMETSHIIPIEKRTITNNTGVTTLKYQQPHQNPHYQEQRRDYYMGNNIQIQTAYNSTQLRKYQPKPKKFSSYTGESLEGHALVEKIMAHAKTGILWFFDNYNSSVHFIFDDFELNVGDYAYVKLIQKKEETAHLQFRWKWISGTKKLSPFNCRIDLFQLFIEEQVSYKSKDMLNRNTYTSKNFPIIFDADGIIKNPIPGAIYCVVILRKKIQVTQTESPTHKYQWIIDSAQSNPFIITEYYNPHNAFNRSFIASKQFSSSAALSTDSKKGSSGSEKSSTSPPLKSLTPPSDE
- soluble on expression in E. coli: not soluble

Sequence: MYLQLLKPTLLRCSTRPSSSGAYTRSPIDQKWAAMAKKAMKGREADTLTWNTPEGIPIKPLYLRSDRDCDAQRSVELPGQFPFTRGPYPTMYTQRPWTIRQYAGFSTVEESNKFYKENIKAGQQGLSVAFDLATHRGYDSDNPRVFGDVGMAGVAVDSVEDMRQLFDGINLEKMSVSMTMNGAVVPVLAMYVVAAEEAGVSRKLLAGTIQNDILKEFMVRNTYIYPPEPSMRIIGDIFAYTSREMPKFNSISISGYHMQEAGADAVLEMAFTIADGIQYCETGLNAGLTIDAFAPRLSFFWGISMNFYMEIAKMRAARRLWANLIKERFSPKSDKSMMLRTHSQTSGWSLTEQDPYNNIIRTTIEAMASVFGGTQSLHTNSFDEALGLPTKFSARIARNTQIIIQEESGICNVADPWGGSYMMESLTDEIYEKALAVIKEIDELGGMAKAVASGMTKLKIEEAAAKKQARIDAGKDVIVGVNKYRLDHEQQVEVLKIDNAKVREEQCAKLNHIRATRDAEKAQKALDAITEGARGNGNLMELAIEAARARCTVGEISDAMEKVFNRHAAVNRLVSGAYKSEFGETSEMSQVLERVKSFADRDGRQPRIMVAKMGQDGHDRGAKVIATGFADLGFDVDVGPLFQTPLEAAQQAVDADVHVIGASSLAAGHLTLIPQLIGELKKLGRPDILVVAGGVIPPQDYKELYDAGVALVFGPGTRLPACANQILEKLEANLPEAPGKAASR
- soluble on expression in E. coli: not soluble

Sequence: MSAEASGPAAAAAPSLEAPKPSGLEPGPAAYGLKPLTPNSKYVKLNVGGSLHYTTLRTLTGQDTMLKAMFSGRVEVLTDAGGWVLIDRSGRHFGTILNYLRDGSVPLPESTRELGELLGEARYYLVQGLIEDCQLALQQKRETLSPLCLIPMVTSPREEQQLLASTSKPVVKLLHNRSNNKYSYTSTSDDNLLKNIELFDKLALRFHGRLLFLKDVLGDEICCWSFYGQGRKIAEVCCTSIVYATEKKQTKVEFPEARIFEETLNILIYETPRGPDPALLEATGGAAGAGGAGRGEDEENREHRVRRIHVRRHITHDERPHGQQIVFKD
- soluble on expression in E. coli: soluble

Sequence: MGSDKIHHHHHHMDHAIYTAMGGASQSLEKQAITANNLANASTPGFRAQLSALRAVPVNGLTLPTRTLVVASTPGADMTEGVMNYTGRAMDVALPKESWLAVQTANGGEAYTRNGNMEINADGQLTIQGRVVMGDGGPIDIPPQAQISISADGTISALNAGDPPNTIAQLGRLKLVKATGQEVERSDDGLFRLTQQAQQQRGNVLQNDPTVRIMPGVIEGSNVNTVDTMVDMIANARRFEMQMKVISSVDDNAQRANQILAMG
- soluble on expression in E. coli: not soluble

Sequence: MTNWLIAYQGEPGAYSEIAALRFGEPLPCESFDDVFSAVTEQKADYAVIPIENSLGGSIHQNYDLLLRRPVVILAETFVKVEHCLLGLPGASVETATKAMSHPQALVQCHNFFATHPQIRAEAAYDTAGSAKMVAESRDKSALAIASKRAGELYGLDILKENLADEEWNITRFFCIAHENN
- soluble on expression in E. coli: not soluble

Sequence: MGSDKIHHHHHHMNPCGFNKCYIQPSADLSVSLQIVSGKSRASISEIGSHMDSLQIDGLDILLHSYDGSPTHFGSAFLFPYANRVKDARYVMDGVEYRLPNNEGKNSIHGLVLDKNFSVISREEESITMETSIAGGEAYPSDLSVRISHSVDETSYRCEVTVINKGVKRSPIAAGFHPYFVYKNKWAIIKPETAWIMEYDGPFPTGKMDRMTFGDISYLNAYDNQFFADSDIIVDVGYSRLKITRNNMPFFVIYNGRYSAGSSVAIEPMMSAVDSFNNGIGLRLLNPGDTMKFGYSIDIV
- soluble on expression in E. coli: not soluble

Sequence: MVVNYPRAYTAEQSRPINLVGKQGQAVQISIHYPSQYICANRERILPDWQEQALFWVVIVLQQSKYPLVKSTAEIEREKEHLREKFMRFGCDLAFELRDRGYLADLIDPRTGYPMLSRPGVIPHNDTAVVKALLNYPVLKNKCSVIVHPHWGTAVYPSIFLSAALEHHHHHH
- soluble on expression in E. coli: not soluble

Sequence: MTLLRTTLLSSLLATVVLGASAAPRTEVIPLNYRTADDVMAVAQSVIGSEGKVTAYGNQLIVNAEPAKIRELQSVLQQIDSRPHRLLITVDTSENLQQDSRGYSVDGSASAGNIEIQSGRGEVNGKDRVRIIRRSTDSRSGGSQQVQATEGYPALIQVGQSVPITSTATGPYGQIYSQTEYRNVNRGFYVTATLTGNLVHVTISSSNDRLSQSHPGVIDTQSTDTRVSGKLGEWITLGGVSEQNQADQRGFVRRYSTQGRDDTSLRLKVETLDLEHHHHHH
- soluble on expression in E. coli: not soluble

Sequence: SNAMALGFGMKMELQQFLDALASSPEKIEFETTMAVIEDNYDFTPAAFTNGNTQNDANENNGSCKIFAFGLLNALDKEATLACFGRFYREDVLLHPENNDHQNIRNFMVTGWEGIQFETSALTAK
- soluble on expression in E. coli: soluble

Sequence: MSLSLDESNTALAEEFDNWDLEFKLWELVDRLFRFRALFSNKAKTELLREYDFSSMGIKQENFLRKNPAIRELSIIILWLQSHTPSLVGDETESYQTKWKNTAMAVANSDFDVLASRATDADLIDKLDIDAPLRSNRSIHPADESNDSKVFAQIYKLLLQDRVQDAIDIANNTGNYALALILVGATQEYFDPVLDKEGHHHHHH
- soluble on expression in E. coli: soluble

Sequence: MSLLHERINFNPKVDVEVKLPERLEEGKITEVNVVVRNRGSKGILEVKIEGEDLIGEAKRVKLDSGEKLVKLSVKPLNKGDKVLKVKALFEDELNLYYSEVYEAEFSIQVLPSVDSIREAAREEVSIRMREALKKGKIGVESTELYGLREYLPGDDVRRIDWKATTRLRKLIVKEFMRESEGDVYIVLDATREMRKRIRRSKIDYASSLVLYIATILIRSNKRVGLILFSEDEFKVVKPEKGSEQLERIRETLRFKPLKGLTSFKGEVGRLKTWDFLRKLFPRKRRGVEEALLSIRNPSYVILITDLMSNTPRLYSAVSMVKKKHKVIILSPNPVLFYSGELDEETLRFLYEKYRERERILRKFNSLVPTVDLGPSDYGREVLEVLEGEGHHHHHH
- soluble on expression in E. coli: not soluble

Sequence: MDYHSNGNGINGMNGSSRHSADGPSTPTHSGNGHSNGEGNSTYWETAPAEMVELADKYNFTINEGSSIQQEALELRSVIRKDLTKKLKIKSGYSRIKLITSDRRQSEFLRYELSDLNEQIADLQEDLQALEMYNSGAFDEDVMYLDNLEDCDVENGPPSKLVILQLELEKELKVKRGLEQFLRGAPDKSKVHGDSQSLLDDSRAKIAMLRMQIERLSQEAPAVEGEPKTKVELAIDDLIIRFHKEKLIMDGSRNMIRILRSKRKPDSKAVDEAMNSYVIASEKADLIKLALLKYASSLPLEHDHRKYLI
- soluble on expression in E. coli: not soluble
